# Results from patent US20070134660.
# B1: hu_uKHC (1-337H) motor domain (SEQ ID NO:17) (protein)
# chain: MADLAECNIKVMCRFRPLNESEVNRGDKYIAKFQGEDTVVIASKPYAFDRVFQSSTSQEQVYNDCAKKIVKDVLEGYNGTIFAYGQTSSGKTHTMEGKLHDPEGMGIIPRIVQDIFNYIYSMDENLEFHIKVSYFEIYLDKIRDLLDVSKTNLSVHEDKNRVPYVKGCTERFVCSPDEVMDTIDEGKSNRHVAVTNMNEHSSRSHSIFLINVKQENTQTEQKLSGKLYLVDLAGSEKVSKTGAEGAVLDEAKNINKSLSALGNVISALAEGSTYVPYRDSKMTRILQDSLGGNCRTTIVICCSPSSYNESETKSTLLFGQRAKTIKNTVCVNVELTAVDKLAAALEHHHHHH
# B2: KIF14 motor domain V342-K720 (SEQ ID NO:4) (protein)
# chain: MVQNTSAGKDPLKVENSQVTVAVRVRPFTKREKIEKASQVVFMSGKEITVEHPDTKQVYNFIYDVSFWSFDECHPHYASQTTVYEKLAAPLLERAFEGFNTCLFAYGQTGSGKSYTMMGFSEEPGIIPRFCEDLFSQVARKQTQEVSYHIEMSFFEVYNEKIHDLLVCKDENGQRKQPLRVREHPVYGPYVEALSMNIVSSYADIQSWLELGNKQRATAATGMNDKSSRSHSVFTLVMTQTKTEFVEGEEHDHRITSRINLIDLAGSERCSTAHTNGDRLKEGVSINKSLLTLGKVISALSEQANQRSVFIPYRESVLTWLLKESLGGNSKTAMIATISPAASNIEETLSTLRYANQARLIVNIAKVNEDMNAKLIRELKLEHHHHHHHHHHHH
# B3: hu-KSP (1-367H) motor domain (SEQ ID NO:15) (protein)
# chain: MASQPNSSAKKKEEKGKNIQVVVRCRPFNLAERKASAHSIVECDPVRKEVSVRTGGLADKSSRKTYTFDMVFGASTKQIDVYRSVVCPILDEVIMGYNCTIFAYGQTGTGKTFTMEGERSPNEEYTWEEDPLAGIIPRTLHQIFEKLTDNGTEFSVKVSLLEIYNEELFDLLNPSSDVSERLQMFDDPRNKRGVIIKGLEEITVHNKDEVYQILEKGAAKRTTAATLMNAYSSRSHSVFSVTIHMKETTIDGEELVKIGKLNLVDLAGSENIGRSGAVDKRAREAGNINQSLLTLGRVITALVERTPHVPYRESKLTRILQDSLGGRTRTSIIATISPASLNLEETLSTLEYAHRAKNILNKPEVNQHHHHHH
# B4: hu_CENP-E (1-340H) motor domain (SEQ ID NO:19) (protein)
# chain: MAEEGAVAVCVRVRPLNSREESLGETAQVYWKTDNNVIYQVDGSKSFNFDRVFHGNETTKNVYEEIAAPIIDSAIQGYNGTIFAYGQTASGKTYTMMGSEDHLGVIPRAIHDIFQKIKKFPDREFLLRVSYMEIYNETITDLLCGTQKMKPLIIREDVNRNVYVADLTEEVVYTSEMALKWITKGEKSRHYGETKMNQRSSRSHTIFRMILESREKGEPSNCEGSVKVSHLNLVDLAGSERAAQTGAAGVRLKEGCNINRSLFILGQVIKKLSDGQVGGFINYRDSKLTRILQNSLGGNAKTRIICTITPVSFDETLTALQFASTAKYMKNTPYVNEVSTVDKLAAALEHHHHHH
# B5: KIF14 motor domain V354-K720 (SEQ ID NO:6) (protein)
# chain: MVENSQVTVAVRVRPFTKREKIEKASQVVFMSGKEITVEHPDTKQVYNFIYDVSFWSFDECHPHYASQTTVYEKLAAPLLERAFEGFNTCLFAYGQTGSGKSYTMMGFSEEPGIIPRFCEDLFSQVARKQTQEVSYHIEMSFFEVYNEKIHDLLVCKDENGQRKQPLRVREHPVYGPYVEALSMNIVSSYADIQSWLELGNKQRATAATGMNDKSSRSHSVFTLVMTQTKTEFVEGEEHDHRITSRINLIDLAGSERCSTAHTNGDRLKEGVSINKSLLTLGKVISALSEQANQRSVFIPYRESVLTWLLKESLGGNSKTAMIATISPAASNIEETLSTLRYANQARLIVNIAKVNEDMNAKLIRELKLEHHHHHHHHHHHH
# B6: KIF14 motor domain V342-D710 (SEQ ID NO:5) (protein)
# chain: MVQNTSAGKDPLKVENSQVTVAVRVRPFTKREKIEKASQVVFMSGKEITVEHPDTKQVYNFIYDVSFWSFDECHPHYASQTTVYEKLAAPLLERAFEGFNTCLFAYGQTGSGKSYTMMGFSEEPGIIPRFCEDLFSQVARKQTQEVSYHIEMSFFEVYNEKIHDLLVCKDENGQRKQPLRVREHPVYGPYVEALSMNIVSSYADIQSWLELGNKQRATAATGMNDKSSRSHSVFTLVMTQTKTEFVEGEEHDHRITSRINLIDLAGSERCSTAHTNGDRLKEGVSINKSLLTLGKVISALSEQANQRSVFIPYRESVLTWLLKESLGGNSKTAMIATISPAASNIEETLSTLRYANQARLIVNIAKVNEDLEHHHHHHHHHHHH
# B7: hu_nKHC (1-340H) motor domain (SEQ ID NO:18) (protein)
# chain: MAETNNECSIKVLCRFRPLNQAEILRGDKFIPIFQGDDSVVIGGKPYVFDRVFPPNTTQEQVYHACAMQIVKDVLAGYNGTIFAYGQTSSGKTHTMEGKLHDPQLMGIIPRIARDIFNHIYSMDENLEFHIKVSYFEIYLDKIRDLLDVTKTNLSVHEDKNRVPFVKGCTERFVSSPEEILDVIDEGKSNRHVAVTNMNEHSSRSHSIFLINIKQENMETEQKLSGKLYLVDLAGSEKVSKTGAEGAVLDEAKNINKSLSALGNVISALAEGTKSYVPYRDSKMTRILQDSLGGNCRTTMFICCSPSSYNDAETKSTLMFGQRAKTIKNTASVNLELTAEVDKLAAALEHHHHHH
# B8: hu_MKLP-1 (1-433H) motor domain (SEQ ID NO:20) (protein)
# chain: MARAKTPRKPTVKKGSQTNLKDPVGVYCRVRPLGFPDQECCIEVINNTTVQLHTPEGYRLNRNGDYKETQYSFKQVFGTHTTQKELFDVVANPLVNDLIHGKNGLLFTYGVTGSGKTHTMTGSPGEGGLLPRCLDMIFNSIGSFQAKRYVFKSNDRNSMDIQCEVDALLERQKREAMPNPKTSSSKRQVDPEFADMITVQEFCKAEEVDEDSVYGVFVSYIEIYNNYIYDLLEEVPFDPIKPKPPQSKLLREDKNHNMYVAGCTEVEVKSTEEAFEVFWRGQKKRRIANTHLNRESSRSHSVFNIKLVQAPLDADGDNVLQEKEQITISQLSLVDLAGSERTNRTRAEGNRLREAGNINQSLMTLRTCMDVLRENQMYGTNKMVPYRDSKLTHLFKNYFDGEGKVRMIVCVNPKAEDYEENLQVMRFAEVTQEVDKLAAALEHHHHHH
# B9: hu_KIF3A (1-350H) motor domain (SEQ ID NO:16) (protein)
# chain: MPINKSEKPESCDNVKVVVRCRPLNEREKSMCYKQAVSVDEMRGTITVHKTDSSNEPPKTFTFDTVFGPESKQLDVYNLTARPIIDSVLEGYNGTIFAYGQTGTGKTFTMEGVRAIPELRGIIPNSFAHIFGHIAKAEGDTRFLVRVSYLEIYNEEVRDLLGKDQTQRLEVKERPDVGVYIKDLSAYVVNNADDMDRIMTLGHKNRSVGATNMNEHSSRSHAIFTITIECSEKGIDGNMHVRMGKLHLVDLAGSERQAKTGATGQRLKEATKINLSLSTLGNVISALVDGKSTHVPYRNSKLTRLLQDSLGGNSKTMMCANIGPADYNYDETISTLRYANRAKNIKNKARVDKLAAALEHHHHHH
# B10: hu_KIF1B (1-350H) motor domain (SEQ ID NO:21) (protein)
# chain: MSGASVKVAVRVRPFNSRETSKESKCIIQMQGNSTSIINPKNPKEAPKSFSFDYSYWSHTSPEDPCFASQNRVYNDIGKEMLLHAFEGYNVCIFAYGQTGAGKSYTMMGKQEESQAGIIPQLCEELFEKINDNCNEEMSYSVEVSYMEIYCERVRDLLNPKNKGNLRVREHPLLGPYVEDLSKLAVTSYTDIADLMDAGNKARTVAATNMNETSSRSHAVFTIVFTQKKHDNETNLSTEKVSKISLVDLAGSERADSTGAKGTRLKEGANINKSLTTLGKVISALAEVDNCTSKSKKKKKTDFIPYRDSVLTWLLRENLGGNSRTAMVAALSPADINYDETLSTLRYADRVDKLAAALEHHHHHH
# B11: KIF14 motor domain V354-D710 (SEQ ID NO:7) (protein)
# chain: MVENSQVTVAVRVRPFTKREKIEKASQVVFMSGKEITVEHPDTKQVYNFIYDVSFWSFDECHPHYASQTTVYEKLAAPLLERAFEGFNTCLFAYGQTGSGKSYTMMGFSEEPGIIPRFCEDLFSQVARKQTQEVSYHIEMSFFEVYNEKIHDLLVCKDENGQRKQPLRVREHPVYGPYVEALSMNIVSSYADIQSWLELGNKQRATAATGMNDKSSRSHSVFTLVMTQTKTEFVEGEEHDHRITSRINLIDLAGSERCSTAHTNGDRLKEGVSINKSLLTLGKVISALSEQANQRSVFIPYRESVLTWLLKESLGGNSKTAMIATISPAASNIEETLSTLRYANQARLIVNIAKVNEDLEHHHHHHHHHHHH
# Biological target: taxol-stabilized microtubules
Protein,K1/2 (MT) [µM],Km (Michaelis-Menten fit of microtubule utilization),k(obs) (min-1) at MT 0 micromolar [min⁻¹],k(obs) (min-1) at MT 0.25 micromolar [min⁻¹],k(obs) (min-1) at MT 0.5 micromolar [min⁻¹],k(obs) (min-1) at MT 1 micromolar [min⁻¹],k(obs) (min-1) at MT 2.5 micromolar [min⁻¹],k(obs) (min-1) at MT 5 micromolar [min⁻¹],kcat (Michaelis-Menten fit of microtubule utilization),"kcat/Km under optimized conditions (MES, pH 6.0, 40 mM KCl)"
B1,0.34,–,–,–,–,–,–,–,–,–
B2,10.6,a Km of 2.6+/-1.1 (s.d.),0,0.36,1.57,2.79,9.1,13.2,a kcat of 21.3+/-3.5 (s.d.),"compared to 13.2 under optimized conditions (MES, pH 6.0,40 mM KCl)"
B3,0.3,–,–,–,–,–,–,–,–,–
B4,1.6,–,–,–,–,–,–,–,–,–
B5,–,–,0,0.73,1.49,4.12,9.29,18.3,–,–
B6,–,–,0,0.03,0.73,0.79,3.02,5.91,–,–
B7,1.1,–,–,–,–,–,–,–,–,–
B8,0.24,–,–,–,–,–,–,–,–,–
B9,0.17,–,–,–,–,–,–,–,–,–
B10,0.035,–,–,–,–,–,–,–,–,–
B11,–,–,0,0.39,1.07,1.87,5.79,10.2,–,–

# Same assay, conditions: not given
Protein,"kcat/Km under unoptimized conditions (K-PIPES, pH 6.7, 90 mM KCl)",microtubule-dependent ATP hydrolysis activity
B2,"the kcat/Km for the V342-K720 motor domain (SEQ ID NO:4) under unoptimized conditions (K-PIPES, pH 6.7, 90 mM KCl) was 224",All of the KIF14 MD proteins showed microtubule-dependent ATP hydrolysis activity
B5,–,All of the KIF14 MD proteins showed microtubule-dependent ATP hydrolysis activity
B6,–,All of the KIF14 MD proteins showed microtubule-dependent ATP hydrolysis activity
B11,–,All of the KIF14 MD proteins showed microtubule-dependent ATP hydrolysis activity
